{
  "source": "paper PMC7339583",
  "about": "(Alzheimer's Research & Therapy, 2020)",
  "key": {"CatD [1]": {"biological_target": "T1, CatD (Homo sapiens, UniProt P07339)", "T1 construct": "purchased Enzo Life Sciences", "T1 sequence (P07339 65-412)": "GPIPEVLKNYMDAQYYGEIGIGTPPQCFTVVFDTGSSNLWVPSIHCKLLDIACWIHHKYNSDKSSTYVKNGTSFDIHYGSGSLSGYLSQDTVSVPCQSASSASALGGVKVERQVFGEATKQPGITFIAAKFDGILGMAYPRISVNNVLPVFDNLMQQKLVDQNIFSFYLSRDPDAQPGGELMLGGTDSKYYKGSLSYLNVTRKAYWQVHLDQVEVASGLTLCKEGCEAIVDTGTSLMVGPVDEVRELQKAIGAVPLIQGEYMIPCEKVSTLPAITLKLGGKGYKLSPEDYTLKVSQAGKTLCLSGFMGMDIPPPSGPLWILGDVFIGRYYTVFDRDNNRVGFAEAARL", "assay": "Competitive inhibition of CatD activity, fluorogenic substrate (fluorescence dequenching)", "assay_type": "biochemical", "conditions": "mean ± SEM of 4–8 replicates (Fig. 4f)", "protocol": "To address this, we tested the extent to which different peptides at identical concentrations inhibited CatD activity monitored with a fluorogenic substrate.\nFor the determination of the pH dependence of Aβ degradation in soluble brain extracts, freshly harvested brain tissue from 15-day-old mice was dissociated in 20 mM Tris-HCl, pH 7.4 at 4 °C using a Dounce homogenizer, then centrifuged at 1000×g. The resulting supernatant was diluted 1:20 in Britton-Robinson buffers of different pHs, and CatD activity was quantified either using a well-characterized fluorescence polarization-based Aβ degradation assay as described or by monitoring hydrolysis of the CatD-specific fluorogenic substrate, Mca-[…]-Dnp. Kinetic experiments were conducted using freshly prepared, monomeric Aβ peptides separated from aggregated species by size-exclusion chromatography (SEC) and characterized as described. Aβ peptides and PepA were diluted in neutral Dilution Buffer (20 mM Tris, pH 8.0 supplemented with 0.1% BSA), with addition of DMSO as appropriate, and reactions were initiated by transfer into Assay Buffer (60 mM Na-citrate; 80 mM Na2HPO4, pH 4.0; Sigma) supplemented with purified human CatD (Enzo Life Sciences). Where required, reactions were terminated by adjustment to neutral pH with 10× Stop Buffer (0.2 M Tris-HCL, pH 9.5 supplemented with 10 μM PepA). […] Competitive inhibition experiments were conducted using either ELISAs, an Aβ-degradation assay or the fluorogenic substrate."}, "[2]": {"biological_target": "T2, insulin-degrading enzyme (IDE) (Mus musculus, UniProt Q9JHR7)", "T2 construct": "freshly harvested brain tissue from 15-day-old mice was dissociated in 20 mM Tris-HCl, pH 7.4; from tissue; host or cells: mouse brain, soluble extract (15-day-old mice)", "T2 sequence (Q9JHR7 whole entry)": "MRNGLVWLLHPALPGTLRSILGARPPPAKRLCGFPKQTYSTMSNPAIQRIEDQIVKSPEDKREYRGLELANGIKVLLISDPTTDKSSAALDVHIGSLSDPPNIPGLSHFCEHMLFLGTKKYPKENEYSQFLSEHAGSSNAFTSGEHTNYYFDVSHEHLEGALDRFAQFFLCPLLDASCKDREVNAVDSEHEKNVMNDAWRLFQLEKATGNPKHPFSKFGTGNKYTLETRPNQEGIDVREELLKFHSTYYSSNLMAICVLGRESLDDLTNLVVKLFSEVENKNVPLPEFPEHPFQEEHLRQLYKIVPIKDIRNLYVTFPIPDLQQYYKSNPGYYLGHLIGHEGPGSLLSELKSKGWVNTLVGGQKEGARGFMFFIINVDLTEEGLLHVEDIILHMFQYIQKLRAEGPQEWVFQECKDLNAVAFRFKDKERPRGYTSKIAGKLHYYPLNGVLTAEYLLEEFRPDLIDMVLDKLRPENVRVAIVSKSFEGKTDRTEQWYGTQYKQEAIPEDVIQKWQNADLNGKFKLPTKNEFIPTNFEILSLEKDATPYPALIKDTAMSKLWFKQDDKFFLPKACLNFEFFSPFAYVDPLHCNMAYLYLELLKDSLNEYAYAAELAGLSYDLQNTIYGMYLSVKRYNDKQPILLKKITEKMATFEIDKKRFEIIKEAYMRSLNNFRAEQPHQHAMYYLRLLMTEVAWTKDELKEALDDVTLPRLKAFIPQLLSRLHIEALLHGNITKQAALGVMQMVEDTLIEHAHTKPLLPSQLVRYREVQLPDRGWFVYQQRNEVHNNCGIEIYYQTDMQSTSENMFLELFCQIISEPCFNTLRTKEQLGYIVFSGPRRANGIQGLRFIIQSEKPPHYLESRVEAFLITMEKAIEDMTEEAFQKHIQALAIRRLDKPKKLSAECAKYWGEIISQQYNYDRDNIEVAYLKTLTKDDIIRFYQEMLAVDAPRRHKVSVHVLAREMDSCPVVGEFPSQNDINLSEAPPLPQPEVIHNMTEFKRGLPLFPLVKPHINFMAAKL", "assay": "Aβ-degrading activity in soluble brain extracts at neutral pH", "assay_type": "biochemical", "conditions": "15-day-old mice; excess insulin; pH 7.5 to 9.5", "description": "(§1) As an initial step towards elucidating the role of CatD in Aβ proteostasis, we quantified rates of Aβ degradation in vitro in soluble brain extracts from CatD-KO mice and wild-type controls as a function of pH, focusing on extracts from 15-day-old mice, due to the premature lethality of CatD-KO mice that occurs by ~ 4 weeks of age. Consistent with previous results, Aβ-degrading activity was present principally within two pH ranges: at neutral pH (pH 7.5 to 9.5) and—to a considerably larger extent—also at acidic pH (pH 2.5 to 4.5) (Fig. 1a). The Aβ-degrading activity at neutral pH was inhibited by excess insulin and reflects the activity of the neutral protease insulin-degrading enzyme (IDE), as shown previously by McDermott and Gibson. […] To extend and confirm these findings, we quantified Aβ degradation at pH 4.0 in soluble brain extracts from CatD-KO and WT mice, as well as heterozygous null (CatD-HET) mice (Fig. 1b). […] Consistent with this, levels of both preprocathepsin D and mature CatD protein in the CatD-HET animals were also determined to be > 50% of WT levels (Fig. 1c, d), with mature CatD protein being reduced by only 26.0 ± 14.2% relative to WT controls (p > 0.05; Fig. 1d). […]"}, "[3]": {"biological_target": "Cathepsin D (purified human CatD, Enzo Life Sciences) (human) (UniProt P07339)"}, "CatD [4]": {"biological_target": "T3, CatD (Mus musculus, UniProt P18242)", "T3 construct": "freshly harvested brain tissue from 15-day-old mice was dissociated in 20 mM Tris-HCl, pH 7.4; from tissue; host or cells: mouse brain, soluble extract (15-day-old WT and CatD-HET mice)", "T3 sequence (P18242 65-410)": "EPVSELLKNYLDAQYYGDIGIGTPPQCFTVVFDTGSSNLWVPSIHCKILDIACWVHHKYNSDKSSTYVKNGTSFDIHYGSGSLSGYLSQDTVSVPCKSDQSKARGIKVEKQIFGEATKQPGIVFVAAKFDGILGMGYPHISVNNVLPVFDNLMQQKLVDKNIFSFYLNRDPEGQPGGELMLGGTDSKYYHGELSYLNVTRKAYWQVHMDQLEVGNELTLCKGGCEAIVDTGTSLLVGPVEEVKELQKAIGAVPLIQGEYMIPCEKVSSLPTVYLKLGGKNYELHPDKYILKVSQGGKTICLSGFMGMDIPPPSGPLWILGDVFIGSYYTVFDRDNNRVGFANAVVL", "assay": "Aβ-degrading activity in soluble brain extracts at pH 4.0", "assay_type": "biochemical", "conditions": "15-day-old mice, 4 replicates", "description": "as §1"}},
  "note": "Values joined by “and” are separate entries in the source; they are usually repeats but may differ in a detail not shown here. Equal entries are not always repeated. “Also recorded” adds a separate entry of the source.",
  "data": [
    {"substance": "rodent Aβ42: full-length murine Aβ ending at position 42 (DAEFGHDSGFEVRHQKLVFFAEDVGSNKGAIIGLMVGGVVIA)", "values": [
      {"measurement": "inhibition of CatD activity at 1 μM peptide", "setting": "CatD [1]", "result": "> 90", "unit": "%"},
      {"measurement": "inhibition of CatD activity at 1 μM peptide", "setting": "CatD [1]; listed as mAβ(1–42)", "result": "strongly inhibited"}
    ]},
    {"substance": "insulin", "values": [
      {"measurement": "inhibition of Aβ-degrading activity at neutral pH in brain extracts", "setting": "[2]", "result": "inhibited"}
    ]},
    {"substance": "Aβ(33–42): short C-terminal fragment of Aβ42 (GLMVGGVVIA; Amyloid-beta protein 42; UniProt P05067 704-713, looked up, fragment)", "values": [
      {"measurement": "inhibition of CatD activity at 1 μM peptide", "setting": "CatD [1]", "result": "failed to inhibit significantly"}
    ]},
    {"substance": "full-length murine Aβ (mAβ(1–42)) (from UniProt P12023 672-713) (peptide)", "values": [
      {"measurement": "inhibition of CatD activity (fluorogenic substrate) by 1 μM peptide", "setting": "[3]", "result": "> 90", "unit": "%"}
    ]},
    {"substance": "Aβ(17–42): α-secretase-derived p3 fragment of APP ending at position 42 (LVFFAEDVGSNKGAIIGLMVGGVVIA; Amyloid-beta protein 42; UniProt P05067 688-713, looked up, fragment)", "values": [
      {"measurement": "inhibition of CatD activity at 1 μM peptide", "setting": "CatD [1]", "result": "strongly inhibited and > 90%"}
    ]},
    {"substance": "pepstatin A", "values": [
      {"measurement": "inhibition of Aβ-degrading activity in WT and CatD-HET brain extracts", "setting": "CatD [4]", "result": "largely inhibited; also recorded: inhibited almost completely"}
    ]},
    {"substance": "Aβ(33–40): C-terminal fragment corresponding to Aβ(33–42), ending at position 40 (GLMVGGVV; Amyloid-beta protein 40; UniProt P05067 704-711, looked up, fragment)", "values": [
      {"measurement": "inhibition of CatD activity at 1 μM peptide", "setting": "CatD [1]", "result": "modest but statistically significant inhibition"}
    ]}
  ]
}
